Results from article PMC12466090 (Photochemistry and Photobiology, 2025).

Tests used:
[1] = UV-VIS absorption / fluorescence spectroscopy; type: physicochemical; details: fluorescence spectrum in washed cells, excitation at 600 nm (Figure S3)
[2] = in water; standard of the relative method; no reference given; cited from earlier work

Molecule | form bound to cells (fluorescence spectrum after uptake) [1] | singlet oxygen quantum yield (ΦΔ) of the reference standard [2]
cRGDfK (Arg–Gly–Asp–D–Phe–Lys) (head to tail) [SiPc‐2c(RGDfK)] | monomeric form is bound to cells | 
CN(C)c1ccc2nc3ccc(=[N+](C)C)cc-3sc2c1 [methylene blue] |  | 0.52
